Measurements as given in patent US11697680B2, “Anti-GP73 antibodies and immunoconjugates” (CUREAB GMBH, priority 2016, dated 2023).

Assays:
[1] = biological target: T1, Furin cleavage of recombinant GP73-HIS (Homo sapiens, UniProt Q8NBJ4); assay: Furin cleavage of GP73-HIS depending on antibody binding (capture ELISA); type: biochemical; conditions: 3 U and 1.5 U of Furin; 2 hours at 30° C.
T1 construct: purchased Biolegend
T1 sequence (Q8NBJ4 36-401 limits assumed): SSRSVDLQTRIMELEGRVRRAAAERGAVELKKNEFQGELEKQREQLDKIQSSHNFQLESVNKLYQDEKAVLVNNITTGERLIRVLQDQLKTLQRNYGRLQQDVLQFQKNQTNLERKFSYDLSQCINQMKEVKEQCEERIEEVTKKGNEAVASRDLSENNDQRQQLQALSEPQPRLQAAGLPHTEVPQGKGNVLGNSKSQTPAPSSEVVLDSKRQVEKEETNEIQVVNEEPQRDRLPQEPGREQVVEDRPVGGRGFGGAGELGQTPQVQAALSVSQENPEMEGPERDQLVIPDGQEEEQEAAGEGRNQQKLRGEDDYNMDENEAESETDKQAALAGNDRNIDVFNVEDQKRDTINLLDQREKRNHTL
Description: Measurements of Furin cleavage of GP73 using a range from 0 units to 3 units of Furin are depicted.
Testing of Furin cleavage exploits the fact that antibodies G2-1 and G2-2 bind GP73 N-terminal of or at the furin cleavage site 56R whereas recombinant GP73 with C-terminal HIS tag (GP73-HIS) is detected by anti HIS antibody at the C-terminus of GP73. Plate bound anti human IgG can capture G2-1 or G2-2, which binds GP73-HIS. If furin cleavage occurs in a setting where G2-1 or G2-2 have already bound to GP73-HIS, only N-terminal part of GP73 will reside at the G2 antibodies. In contrast, if furin cleavage is hindered by G2 antibodies, GP73-HIS can be detected by an anti HIS antibody.
Furin cleavage was carried out in 1.5 ml tubes. To test if G2 antibodies can hinder furin cleavage recombinant GOLPH-HIS protein (Biolegend) and G2-2 or G2-1 was incubated for 2 hours in 100 mM HEPES and 1 mM CaCl2 buffer pH 7.5 to allow antibody binding to GP73. […]
From each reaction 2×100 ul were transferred to wells of a 96 well plate that had been coated over night with anti human IgG and was blocked with 1% gelatine in PBS. After one hour incubation at room temperature the plate was washed, incubated with anti HIS-hrp antibody for one hour, washed again, incubated with a chromogenic substrate (TMB Amersham) to detect peroxidase, stopped and read at 450 nm.

[2] = test system: HuH7 (human hepatocellular carcinoma); assay: Cell viability / proliferation with PrestoBlue reagent; type: cell-based; conditions: 0.125 mg/ml to 2 mg/ml, after 72 hrs
Method: FIG. 13A Proliferation of HuH7 cells (human hepatocellular carcinoma) after treatment with different antibodies. HuH7 cells were treated with G2-2, G2-2 plus Cetuximab, mG2-2, mG2-2 plus Cetuximab, Cetuximab or control antibody each in increasing concentrations from 0.125 mg/ml to 2 mg/ml. Proliferating cells were measured after 72 hrs. […] This effect was independent of the Fc part i.e. human IgG1 in G2-2 or murin IgG2a in mG2-2 as described in Example 8.
FIG. 13B Proliferation of HuH7 cells (human hepatocellular carcinoma), 4T1 cells (murin breast carcinoma) and CaCo2 cells (human colorectal carcinoma) after treatment with different antibodies. The three cell lines were treated with G2-1, G2-1 plus Cetuximab, Cetuximab, Bevacizumab or Bevacizumab plus Cetuximab 2 mg/ml total. Proliferating cells were measured after 72 hrs.
Cells from the cell lines HuH7 (human hepatocellular carcinoma), 4T1 (murin breast carcinoma) and CaCo2 (human colorectal carcinoma) were cultured under standard conditions in Dulbecco's modified Eagle Medium (DMEM) supplemented with 10% fetal calf serum (FCS) at 37° C. with 5% CO2. […] Fluorescence was read at 615 nm to quantify cell viability. […]
To test the effect of G2-1 on different cell lines, HuH7, 4T1 and CaCo2 cells were transferred to 96 well plates. […] Cell viability was quantified after 72 hours using PrestoBlue reagent and measuring the fluorescence at 615 nm.

B1: G2-2: scFv clone with human IgG1 heavy and human Igk light constant regions; VH/VL SEQ ID NO: 2 and 3; binds rGP73 AA 36-55 (antibody, V domains shown)
VH: EVQLLQSGGGVVQPGRSLRLSCAASGFTFSSYGMSWVRQAPGKGLEWVAVISYDGSNKYYADSVKGRFTISRDNSKNTLYLQMNSLRAEDTAVYYCAREGSAGMDVWGQGTTVTVSS
VL: DIQMTQPSSLSASPGASASLTCTLRSDISVGFHRIYWYQQKPGSPPQYLLRYKSDSDKQQGSGVPSRFSGSKDASANAGILLISGLQSDDEADYYCVIWHTSGVVFGGGTKVEIK
modifications: human IgG1 and Igk constant regions not cited; G2-2 heavy chain variable region (VH); G2-2 light chain variable region (VL)
- Furin cleavage of GP73 after preincubation with antibody [1]: significant reduction in Furin cleavage
- cell proliferation / cell viability [2]: reduced depending on antibody concentration
